Consider 8 molecules from patent US20220389118A1 (Chugai, published 2022).

Where two headings read alike, the source gives them in different places.

Assay [1] has as its target T1, human FcγRIIa type R (allotype R131) extracellular domain with C-terminal His tag (human, UniProt P12318 34-217).
T1 construct: extracellular domain; also called FcγRIIaR; FcγRIIa R type; not shown: His tag at the C terminus
T1 sequence (looked up): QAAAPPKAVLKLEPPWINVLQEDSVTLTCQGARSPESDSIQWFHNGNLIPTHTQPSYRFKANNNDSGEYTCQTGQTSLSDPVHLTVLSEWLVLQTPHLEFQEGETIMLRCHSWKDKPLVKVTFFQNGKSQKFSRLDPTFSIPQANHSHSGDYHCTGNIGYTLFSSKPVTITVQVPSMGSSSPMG
Put plainly: SPR (Biacore), antibody captured, FcγR analyte. On the technique in general: In SPR one partner is held on a chip, and binding of the other changes the refractive index at the surface.

Assay [2] concerns the target T2, human FcγRIIb extracellular domain with C-terminal His tag (human, UniProt P31994 43-217).
T2 construct: extracellular domain; not shown: His tag at the C terminus
T2 sequence (looked up): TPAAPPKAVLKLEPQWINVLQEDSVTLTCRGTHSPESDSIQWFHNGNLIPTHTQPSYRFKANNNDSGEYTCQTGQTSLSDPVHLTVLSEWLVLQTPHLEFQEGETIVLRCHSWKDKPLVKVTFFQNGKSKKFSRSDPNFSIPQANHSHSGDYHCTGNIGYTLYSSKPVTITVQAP
Put plainly: SPR (Biacore), antibody captured, FcγR analyte.

In assay [3] the target is T3, human FcγRIIIa type V (allotype V158) extracellular domain with C-terminal His tag (human, UniProt P08637 17-208).
T3 construct: extracellular domain; also called FcγRIIIaV; FcγRIIIa V type; not shown: His tag at the C terminus
T3 sequence (P08637 17-208 F176V): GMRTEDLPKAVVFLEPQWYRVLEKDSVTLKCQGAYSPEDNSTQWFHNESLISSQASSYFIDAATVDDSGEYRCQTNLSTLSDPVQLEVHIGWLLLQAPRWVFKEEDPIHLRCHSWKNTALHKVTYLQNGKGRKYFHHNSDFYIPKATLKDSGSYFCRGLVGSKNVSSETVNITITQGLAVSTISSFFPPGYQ
Put plainly: SPR (Biacore), antibody captured, FcγR analyte.

Assay [4] addresses T4, human FcγRIa extracellular domain with C-terminal His tag (human, UniProt P12314 16-292).
T4 construct: not shown: His tag at the C terminus
Put plainly: SPR (Biacore), antibody captured, FcγR analyte.

For assay [5], the target named is T5, human FcγRIIb extracellular domain with C-terminal His tag (human, UniProt P31994 43-217).
T5 construct: extracellular domain; not shown: His tag at the C terminus
T5 sequence (looked up): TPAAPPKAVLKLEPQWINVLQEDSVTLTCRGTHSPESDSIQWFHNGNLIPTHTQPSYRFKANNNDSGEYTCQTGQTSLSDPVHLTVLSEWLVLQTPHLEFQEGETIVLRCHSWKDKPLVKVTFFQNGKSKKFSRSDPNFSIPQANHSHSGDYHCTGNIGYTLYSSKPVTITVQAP
In words: SPR (Biacore), antibody captured, FcγR analyte. This is another data set of the same source.

In assay [6] the target is T6, human FcRn (human, UniProt P55899 24-297; P61769 21-119).
T6 construct: the construct is not described
T6 sequence (P55899 24-297 limits assumed, chain 1 of 2): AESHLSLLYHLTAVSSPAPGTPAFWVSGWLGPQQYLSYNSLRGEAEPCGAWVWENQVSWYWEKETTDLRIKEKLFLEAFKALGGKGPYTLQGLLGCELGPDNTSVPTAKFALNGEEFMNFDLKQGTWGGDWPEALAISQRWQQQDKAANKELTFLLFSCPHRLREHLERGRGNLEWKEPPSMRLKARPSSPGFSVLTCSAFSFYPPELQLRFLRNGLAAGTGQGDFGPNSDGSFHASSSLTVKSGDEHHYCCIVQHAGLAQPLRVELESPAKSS
T6 sequence (P61769 21-119 limits assumed, chain 2 of 2): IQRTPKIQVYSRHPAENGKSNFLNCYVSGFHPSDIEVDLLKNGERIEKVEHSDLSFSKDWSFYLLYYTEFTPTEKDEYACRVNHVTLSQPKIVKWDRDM
In words: binding to FcRn at pH 6.0; method not stated.

For assay [7], the target named is T6, human FcRn. In words: FcRn binding affinity at pH 6.0; method not stated.

T4 sequence (P12314 16-292): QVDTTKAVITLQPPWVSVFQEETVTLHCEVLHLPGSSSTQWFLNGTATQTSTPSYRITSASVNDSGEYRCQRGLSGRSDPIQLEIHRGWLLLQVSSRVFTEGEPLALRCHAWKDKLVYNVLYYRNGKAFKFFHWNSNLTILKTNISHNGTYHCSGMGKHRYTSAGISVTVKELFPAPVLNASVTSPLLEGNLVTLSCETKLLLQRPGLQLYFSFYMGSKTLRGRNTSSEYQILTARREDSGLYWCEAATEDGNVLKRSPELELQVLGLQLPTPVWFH

B1: IL6R-BP185/IL6R-L (antibody, human IgG1, kappa)
heavy: QVQLQESGPGLVKPSETLSLTCAVSGHSISHDHAWSWVRQPPGEGLEWIGFISYSGITNYNPSLQGRVTISRDNSKNTLYLQMNSLRAEDTAVYYCARSLARTTAMDYWGEGTLVTVSSASTKGPSVFPLAPSSKSTSGGTAALGCLVKDYFPEPVTVSWNSGALTSGVHTFPAVLQSSGLYSLSSVVTVPSSSLGTQTYICNVNHKPSNTKVDKKVEPKSCDKTHTCPPCPAPDYLGDDSVFLFPPKPKDTLMISRTPEVTCVVVDVSHEDGEVKFNWYVDGVEVHNAKTKPREEQYNSTYRVVSVLTVLHQDWLNGKEYKCKVSNAALPKPIEKTISKAKGQPREPQVYTLPPSRDELTKNQVSLTCLVKGFYPSDIAVEWESNGQPENNYKTTPPVLDSDGSFFLYSKLTVDKSRWQQGNVFSCSVMHEALHNHYTQESLSLSP
light: not shown
notes: copies: 2 + 2
Consider B1, for which the Kd – broadly, a measure of binding affinity in units of concentration – in assay [1] is 880 nM; in assay [2] it was 69 nM; in assay [3], 36 µM.

B2: IL6R-BP547/IL6R-L (antibody, human IgG1, kappa)
heavy: QVQLQESGPGLVKPSETLSLTCAVSGHSISHDHAWSWVRQPPGEGLEWIGFISYSGITNYNPSLQGRVTISRDNSKNTLYLQMNSLRAEDTAVYYCARSLARTTAMDYWGEGTLVTVSSASTKGPSVFPLAPSSKSTSGGTAALGCLVKDYFPEPVTVSWNSGALTSGVHTFPAVLQSSGLYSLSSVVTVPSSSLGTQTYICNVNHKPSNTKVDKKVEPKSCDKTHTCPPCPAPDLLGDDSVFLFPPKPKDTLMISRTPEVTCVVVDVSDEDGEVKFNWYVDGVEVHNAKTKPREEQDNSTYRVVSVLTVLHQDWLNGKEYKCKVSNKALPRPIEKTISKAKGQPREPQVYTLPPSRDELTKNQVSLTCLVKGFYPSDIAVEWESNGQPENNYKTTPPVLDSDGSFFLYSRLTVDKSRWQQGNVFSCSVMHEALHNHYTQESLSLSP
light: not shown
notes: K409R introduced into IL6R-BP230; copies: 2 + 2
As to B2, the values for the Kd in assay [4] and in assay [5] were 12 nM and 19 nM, respectively.

B3: IL6R-BP206/IL6R-L (antibody, human IgG1, kappa)
heavy: QVQLQESGPGLVKPSETLSLTCAVSGHSISHDHAWSWVRQPPGEGLEWIGFISYSGITNYNPSLQGRVTISRDNSKNTLYLQMNSLRAEDTAVYYCARSLARTTAMDYWGEGTLVTVSSASTKGPSVFPLAPSSKSTSGGTAALGCLVKDYFPEPVTVSWNSGALTSGVHTFPAVLQSSGLYSLSSVVTVPSSSLGTQTYICNVNHKPSNTKVDKKVEPKSCDKTHTCPPCPAPDLLGGDSVFLFPPKPKDTLMISRTPEVTCVVVDVSHEDGEVKFNWYVDGVEVHNAKTKPREEQYNSTYRVVSVLTVLHQDWLNGKEYKCKVSNKALPRPIEKTISKAKGQPREPQVYTLPPSRDELTKNQVSLTCLVKGFYPSDIAVEWESNGQPENNYKTTPPVLDSDGSFFLYSKLTVDKSRWQQGNVFSCSVMHEALHNHYTQESLSLSP
light: not shown
notes: copies: 2 + 2
With B3, the Kd in assay [2] turned out to be 200 nM; in assay [3], 69 µM.

B4: IL6R-BP201/IL6R-L (antibody, human IgG1, kappa)
heavy: QVQLQESGPGLVKPSETLSLTCAVSGHSISHDHAWSWVRQPPGEGLEWIGFISYSGITNYNPSLQGRVTISRDNSKNTLYLQMNSLRAEDTAVYYCARSLARTTAMDYWGEGTLVTVSSASTKGPSVFPLAPSSKSTSGGTAALGCLVKDYFPEPVTVSWNSGALTSGVHTFPAVLQSSGLYSLSSVVTVPSSSLGTQTYICNVNHKPSNTKVDKKVEPKSCDKTHTCPPCPAPDLLGDDSVFLFPPKPKDTLMISRTPEVTCVVVDVSHEDGEVKFNWYVDGVEVHNAKTKPREEQYNSTYRVVSVLTVLHQDWLNGKEYKCKVSNKALPRPIEKTISKAKGQPREPQVYTLPPSRDELTKNQVSLTCLVKGFYPSDIAVEWESNGQPENNYKTTPPVLDSDGSFFLYSKLTVDKSRWQQGNVFSCSVMHEALHNHYTQESLSLSP
light: not shown
notes: copies: 2 + 2
B4: the values for the Kd in assay [1] and in assay [2] were 840 nM and 40 nM, respectively.

B5: IL6R-BP200/IL6R-L (antibody, human IgG1, kappa)
heavy: QVQLQESGPGLVKPSETLSLTCAVSGHSISHDHAWSWVRQPPGEGLEWIGFISYSGITNYNPSLQGRVTISRDNSKNTLYLQMNSLRAEDTAVYYCARSLARTTAMDYWGEGTLVTVSSASTKGPSVFPLAPSSKSTSGGTAALGCLVKDYFPEPVTVSWNSGALTSGVHTFPAVLQSSGLYSLSSVVTVPSSSLGTQTYICNVNHKPSNTKVDKKVEPKSCDKTHTCPPCPAPDYLGDDSVFLFPPKPKDTLMISRTPEVTCVVVDVSHEDGEVKFNWYVDGVEVHNAKTKPREEQYNSTYRVVSVLTVLHQDWLNGKEYKCKVSNDALPRPIEKTISKAKGQPREPQVYTLPPSRDELTKNQVSLTCLVKGFYPSDIAVEWESNGQPENNYKTTPPVLDSDGSFFLYSKLTVDKSRWQQGNVFSCSVMHEALHNHYTQESLSLSP
light: not shown
notes: copies: 2 + 2
In the case of B5, in assay [2], the affinity, expressed as Kd, was 34 nM.

B6: IL6R-BP230/IL6R-L (antibody, human IgG1, kappa)
heavy: QVQLQESGPGLVKPSETLSLTCAVSGHSISHDHAWSWVRQPPGEGLEWIGFISYSGITNYNPSLQGRVTISRDNSKNTLYLQMNSLRAEDTAVYYCARSLARTTAMDYWGEGTLVTVSSASTKGPSVFPLAPSSKSTSGGTAALGCLVKDYFPEPVTVSWNSGALTSGVHTFPAVLQSSGLYSLSSVVTVPSSSLGTQTYICNVNHKPSNTKVDKKVEPKSCDKTHTCPPCPAPDLLGDDSVFLFPPKPKDTLMISRTPEVTCVVVDVSDEDGEVKFNWYVDGVEVHNAKTKPREEQDNSTYRVVSVLTVLHQDWLNGKEYKCKVSNKALPRPIEKTISKAKGQPREPQVYTLPPSRDELTKNQVSLTCLVKGFYPSDIAVEWESNGQPENNYKTTPPVLDSDGSFFLYSKLTVDKSRWQQGNVFSCSVMHEALHNHYTQESLSLSP
light: not shown
notes: copies: 2 + 2
B6: the Kd in assay [4] came to 10 nM; in assay [5] it was 18 nM.

B7: Fv4-LS (antibody, human IgG1, kappa)
heavy: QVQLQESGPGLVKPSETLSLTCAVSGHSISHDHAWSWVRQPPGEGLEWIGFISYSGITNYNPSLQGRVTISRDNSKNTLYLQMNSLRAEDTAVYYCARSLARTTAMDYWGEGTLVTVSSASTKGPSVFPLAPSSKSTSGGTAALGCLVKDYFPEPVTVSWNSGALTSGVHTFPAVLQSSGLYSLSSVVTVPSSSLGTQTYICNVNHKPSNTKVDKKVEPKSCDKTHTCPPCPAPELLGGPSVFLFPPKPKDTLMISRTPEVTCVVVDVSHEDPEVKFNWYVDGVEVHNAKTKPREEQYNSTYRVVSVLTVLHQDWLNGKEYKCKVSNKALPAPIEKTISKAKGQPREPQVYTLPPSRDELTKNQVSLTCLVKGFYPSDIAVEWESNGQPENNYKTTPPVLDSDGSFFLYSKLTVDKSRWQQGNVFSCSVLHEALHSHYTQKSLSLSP
light: DIQMTQSPSSLSASVGDSVTITCQASTDISSHLNWYQQKPGKAPELLIYYGSHLLSGVPSRFSGSGSGTDFTFTISSLEAEDAATYYCGQGNRLPYTFGQGTKVEIERTVAAPSVFIFPPSDEQLKSGTASVVCLLNNFYPREAKVQWKVDNALQSGNSQESVTEQDSKDSTYSLSSTLTLSKADYEKHKVYACEVTHQGLSSPVTKSFNRGEC
notes: also called F22 (LS); F22; copies: 2 + 2
Turning to B7, the Kd worked out at 71 nM in assay [6] and 160 nM in assay [7].

B8: Fv4-YTE (antibody, human IgG1, kappa)
heavy: QVQLQESGPGLVKPSETLSLTCAVSGHSISHDHAWSWVRQPPGEGLEWIGFISYSGITNYNPSLQGRVTISRDNSKNTLYLQMNSLRAEDTAVYYCARSLARTTAMDYWGEGTLVTVSSASTKGPSVFPLAPSSKSTSGGTAALGCLVKDYFPEPVTVSWNSGALTSGVHTFPAVLQSSGLYSLSSVVTVPSSSLGTQTYICNVNHKPSNTKVDKKVEPKSCDKTHTCPPCPAPELLGGPSVFLFPPKPKDTLYITREPEVTCVVVDVSHEDPEVKFNWYVDGVEVHNAKTKPREEQYNSTYRVVSVLTVLHQDWLNGKEYKCKVSNKALPAPIEKTISKAKGQPREPQVYTLPPSRDELTKNQVSLTCLVKGFYPSDIAVEWESNGQPENNYKTTPPVLDSDGSFFLYSKLTVDKSRWQQGNVFSCSVMHEALHNHYTQKSLSLSP
light: DIQMTQSPSSLSASVGDSVTITCQASTDISSHLNWYQQKPGKAPELLIYYGSHLLSGVPSRFSGSGSGTDFTFTISSLEAEDAATYYCGQGNRLPYTFGQGTKVEIERTVAAPSVFIFPPSDEQLKSGTASVVCLLNNFYPREAKVQWKVDNALQSGNSQESVTEQDSKDSTYSLSSTLTLSKADYEKHKVYACEVTHQGLSSPVTKSFNRGEC
notes: copies: 2 + 2
Turning to B8, the affinity in assay [7], expressed as Kd, was 210 nM.
